Where no end group is shown, it is not given here.
B1: Bivalent Fc-L10-ShK[2-35] homodimer (Fc fusion)
chain: GGGGSGGGGSSCIDTIPKSRCTAFQCKHSMKYRLSFCRKTCGTC
modifications: not fully specified (N-terminus); ends and bridges not checked; also: homodimer via Fc
B2: Bivalent Fc-L10-ShK[1-35] homodimer (Fc fusion)
chain: GGGGSGGGGSRSCIDTIPKSRCTAFQCKHSMKYRLSFCRKTCGTC
modifications: not fully specified (N-terminus); ends and bridges not checked; also: homodimer via Fc

Target: Kv1.3 voltage-gated potassium channel on T cells in human whole blood (human) (UniProt P22001)
Sequence (P22001 whole entry): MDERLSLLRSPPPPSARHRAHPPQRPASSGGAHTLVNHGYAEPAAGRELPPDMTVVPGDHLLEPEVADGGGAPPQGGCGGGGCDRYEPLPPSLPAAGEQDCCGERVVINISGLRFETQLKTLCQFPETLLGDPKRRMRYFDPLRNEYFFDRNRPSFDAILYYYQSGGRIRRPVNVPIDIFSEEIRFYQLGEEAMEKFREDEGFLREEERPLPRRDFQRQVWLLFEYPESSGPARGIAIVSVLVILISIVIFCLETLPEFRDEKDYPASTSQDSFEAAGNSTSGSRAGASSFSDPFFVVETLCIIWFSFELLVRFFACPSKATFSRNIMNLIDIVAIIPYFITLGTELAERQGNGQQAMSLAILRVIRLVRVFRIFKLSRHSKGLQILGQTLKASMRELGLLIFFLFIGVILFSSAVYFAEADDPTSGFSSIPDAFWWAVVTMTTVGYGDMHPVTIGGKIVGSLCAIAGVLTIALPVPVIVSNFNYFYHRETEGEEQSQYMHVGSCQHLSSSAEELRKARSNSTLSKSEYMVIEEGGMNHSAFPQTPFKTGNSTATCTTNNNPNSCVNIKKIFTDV
Experiment: cell-based or functional assay

| Binder | Potency Relative to ShK (WB, IL2) [fold] | WB (IFNg) IC50 [nM] | WB (IL-2) IC50 [nM] |
| --- | --- | --- | --- |
| B1 | 8.73 | 2.29 | 0.585 |
| B2 | 5.76 | 0.32 | 0.386 |
